Literature values as cited in patent US20220031810A1, “FORMULATIONS OF GLUCAGON-LIKE-PEPTIDE-2 (GLP-2) ANALOGUES” (Zealand Pharma A/S, priority 2018, published 2022).
Read-outs that look alike come from different tables or passages of the source.

Compound | half-life (Gly substitution at position 2, compared with native GLP-2) | half-life (in humans) | half-life (in humans, listed as native GLP-2)
CC[C@H](C)[C@H](NC(=O)[C@H](Cc1ccccc1)NC(=O)[C@H](CC(=O)O)NC(=O)[C@H](CCCNC(=N)N)NC(=O)[C@H](C)NC(=O)[C@H](C)NC(=O)[C@H](CC(C)C)NC(=O)[C@H](CC(N)=O)NC(=O)[C@H](CC(=O)O)NC(=O)[C@H](CC(C)C)NC(=O)[C@@H](NC(=O)[C@@H](NC(=O)[C@H](CC(N)=O)NC(=O)[C@H](CCSC)NC(=O)[C@H](CCC(=O)O)NC(=O)[C@H](CC(=O)O)NC(=O)[C@H](CO)NC(=O)[C@H](Cc1ccccc1)NC(=O)[C@H](CO)NC(=O)CNC(=O)[C@H](CC(=O)O)NC(=O)CNC(=O)[C@@H](N)Cc1c[nH]cn1)[C@@H](C)O)[C@@H](C)CC)C(=O)N[C@@H](CC(N)=O)C(=O)N[C@@H](Cc1c[nH]c2ccccc12)C(=O)N[C@@H](CC(C)C)C(=O)N[C@H](C(=O)N[C@@H](CCC(N)=O)C(=O)N[C@H](C(=O)N[C@@H](CCCCN)C(=O)N[C@H](C(=O)N[C@H](C(=O)N[C@@H](CC(=O)O)C(=O)O)[C@@H](C)O)[C@@H](C)CC)[C@@H](C)O)[C@@H](C)CC [teduglutide] | about two |  | 
GLP-2 [3-33]: truncated GLP-2 [3-33] (DGSFSDEMNTILDNLAARDFINWLIQTKITD; Glucagon-like peptide 2; UniProt P01275 148-178, looked up, fragment) |  | ~27 min | 
Hy-His-Ala-Asp-Gly-Ser-Phe-Ser-Asp-Glu-Met-Asn-Thr-Ile-Leu-Asp-Asn-Leu-Ala-Ala-Arg-Asp-Phe-Ile-Asn-Trp-Leu-Ile-Gln-Thr-Lys-Ile-Thr-Asp-OH [GLP-2 [1-33]] |  | around 7 minutes | seven
